This is an account of results in paper PMC6232179.

The target of this assay is COX-2 (prostaglandin endoperoxide synthase 2, PTGS2), purified His-tagged protein (UniProt P35354). Kind of assay: SPR; COX-2 immobilised on a CM5 chip, cyclosporine A flowed at increasing concentrations; 10 mM Hepes pH 7.2, 150 mM NaCl, 1 mM EDTA, 0.005% P20, 2% ethanol; 25 °C, 30 µl/min; 1:1 Langmuir model; triplicate. (In SPR one partner is held on a chip, and binding of the other changes the refractive index at the surface.)

Broadly, the Kd is the concentration at which binding is half-saturated. High values mean a looser complex, low ones a tighter complex.

COX-2 (prostaglandin endoperoxide synthase 2, PTGS2), purified His-tagged protein, sequence (P35354 18-604): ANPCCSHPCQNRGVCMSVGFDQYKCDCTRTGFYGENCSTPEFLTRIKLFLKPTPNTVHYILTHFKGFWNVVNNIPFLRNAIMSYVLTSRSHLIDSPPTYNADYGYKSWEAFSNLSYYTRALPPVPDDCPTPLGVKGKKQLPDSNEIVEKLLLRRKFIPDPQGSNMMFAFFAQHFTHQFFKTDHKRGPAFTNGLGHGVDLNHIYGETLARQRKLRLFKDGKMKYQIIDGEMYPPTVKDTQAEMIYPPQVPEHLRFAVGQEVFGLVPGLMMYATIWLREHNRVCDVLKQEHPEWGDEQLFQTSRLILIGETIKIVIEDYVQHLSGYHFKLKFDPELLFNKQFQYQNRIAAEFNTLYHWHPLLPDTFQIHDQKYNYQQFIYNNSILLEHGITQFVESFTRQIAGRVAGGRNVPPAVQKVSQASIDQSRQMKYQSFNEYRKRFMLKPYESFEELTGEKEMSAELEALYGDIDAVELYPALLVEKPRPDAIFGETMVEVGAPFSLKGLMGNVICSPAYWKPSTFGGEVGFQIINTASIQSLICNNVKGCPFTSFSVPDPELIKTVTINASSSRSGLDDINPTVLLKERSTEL

Cyclosporine A (peptide) showed a Kd of 895 nM.
